This assay has as its target T1, human Müllerian-inhibiting substance type II receptor (MISIIR) (human, UniProt Q16671 18-573).
T1 sequence (looked up): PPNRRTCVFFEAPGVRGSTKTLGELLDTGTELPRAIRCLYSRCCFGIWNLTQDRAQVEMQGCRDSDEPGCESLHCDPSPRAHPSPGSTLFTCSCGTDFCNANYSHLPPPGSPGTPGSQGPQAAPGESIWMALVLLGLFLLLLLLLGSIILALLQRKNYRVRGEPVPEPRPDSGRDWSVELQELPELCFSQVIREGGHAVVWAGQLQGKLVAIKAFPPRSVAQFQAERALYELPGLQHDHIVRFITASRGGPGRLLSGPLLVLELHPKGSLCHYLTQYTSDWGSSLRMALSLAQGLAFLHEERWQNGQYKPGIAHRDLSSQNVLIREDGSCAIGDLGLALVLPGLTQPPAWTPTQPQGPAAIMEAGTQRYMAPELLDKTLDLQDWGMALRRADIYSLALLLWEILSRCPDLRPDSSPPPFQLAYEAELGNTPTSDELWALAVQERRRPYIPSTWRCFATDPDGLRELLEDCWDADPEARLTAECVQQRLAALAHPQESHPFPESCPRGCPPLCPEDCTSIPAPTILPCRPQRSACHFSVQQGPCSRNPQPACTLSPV
Kind of assay: cell-based or functional assay.

B1: Müllerian-inhibiting substance (MIS) (ligand)
chain: SAGATAADGPCALRELSVDLRAERSVLIPETYQANNCQGVCGWPQSDRNPRYGNHVVLLLKMQVRGAALARPPCCVPTAYAGKLLISLSEERISAHHVPNMVATECGCR
With B1, the “expression of a luciferase reporter gene over background levels, 10 nM, 3-day assay, P19 reporter cell line” value is ~10 fold.

(Values after patent US20200010523A1 (INSTITUTE FOR CANCER RESEARCH, published 2020).)
